Data from the supplement of paper PMC11780869.

These sequences were tested on Bacillus subtilis (assay: cleaved RNA product abundance (RNA/gDNA barcode ratio) relative to median wild-type variant (ratio to wild type); higher = more accumulation of the downstream cleavage product). Settings: experiment (reporter, strain, medium): exp 8a: truncated aprE reporter, strain BJT201 with 2% xylose (RNase J1 expressed); cleavage site: glnRA (positions -5 to +31 mutated).
How it was run: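 Sequencing of barcodes from gel-selected, reverse-transcribed cleaved RNA and from genomic DNA, with UMI collapsing, yielded a per-construct RNA:gDNA ratio. Scaled to the median construct with the unmutated site, this ratio is the cleaved product abundance. The barcoded reporters (truncated aprE or tetM mRNAs with mutagenized RNase Y cleavage-site windows) were integrated into the B. subtilis chromosome, and cultures grew in LB at 37°C from OD600 0.0003 to 0.3.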
“CGACATGTCCCGCTTCTTTCATTATTCTGTTAGCAACTGTTTTGCTATAAACATTTACCTTTTAAGAGGAGGAAT” was tested, and the “cleaved RNA product abundance” value was 0.834. In the case of “CGACATGTCCCGCTTCTTTCATTATTCTGTTAGCAACTGTTTTGCTATATACAGTTACCTTTTAAGAGGAGGAAT”, the “cleaved RNA product abundance” value is reported as 0.717. With “CGACATGTCCCGCTTCTTTCATTATTCTGTTAGCAACTGTTTTGCTATATACATTTACCTTTTAAGAGGAGGAAT” the “cleaved RNA product abundance” value was 1.94. In the case of “CGACATGTCCCGCTTCTTTCATTATTGCGTTAGCAACTGTTTTGCTATATACATTTACCTTTTAAGAGGAGGAAT”, the “cleaved RNA product abundance” value is reported as 1.54. “CGACATGTCCCGCTTCTTTCATTATTTCGTTAGCAACTGTTTTGCTATATACATTTACCTTTTAAGAGGAGGAAT” was tested, and the “cleaved RNA product abundance” value was 1.59.
